One may read the EC50 as the midpoint of the concentration-response curve.

From patent publication US20140301945A1 (NEURIMMUNE, published 2014) come the findings set out here.

Assay [1] concerns the target T1, bovine serum albumin (bovine, UniProt P02769 25-607).
T1 construct: Control antigen in ELISA; also called BSA
Description: direct ELISA, BSA coated at 3.3 µg/ml.
Description: Non-specific binding sites were blocked for 2 hr at RT with PBS containing 2% BSA (Sigma-Aldrich, Buchs, Switzerland) and 0.5% Tween20.

The target in assay [2] is T2, recombinant human SOD1 (biomol, Hamburg) (human, UniProt P00441 2-154, limits assumed).
T2 construct: Bought protein; also called recombinant human superoxide dismutase 1; Recombinant SOD1
Nature of the assay: direct ELISA, recombinant SOD1 coated at 20 µg/ml. For orientation: In an ELISA, binding on a coated surface is turned into a signal by an enzyme label.
Description: (§1) Primary antibodies were diluted to the indicated concentrations and incubated 1 h at RT. Binding was determined using either a donkey anti-human IgG Fcγ-specific antibody conjugated with HRP or a goat anti-mouse IgG (H+L)-specific antibody conjugated with HRP, followed by measurement of HRP activity in a standard colorimetric assay.
(§2) The EC₅₀ of the different human-derived SOD1-specific antibodies for native human SOD1 dimers, denatured/oxidized human SOD1 and recombinant SOD1 was determined by direct ELISA with coating of the different SOD1 species at 20 μg/ml concentration.

The target of assay [3] is T2, recombinant human SOD1 (biomol, Hamburg). Nature of the assay: direct ELISA, recombinant human SOD1 coated at 1 µg/ml.
Description: (§3) Binding was determined using either a goat anti-mouse IgG antibody (Jackson immunoResearch, Newmarket, UK) or a donkey anti-human IgGγ (Jackson immunoResearch, Newmarket, UK) antibody conjugated with HRP, followed by measurement of HRP activity in a standard colorimetric assay. The EC₅₀ values were estimated by a non-linear regression using GraphPad Prism (San Diego, USA) software.
Assay [4] shares this target. Description: direct ELISA, recombinant human SOD1 coated at 10 µg/ml.
Assay [5] has the same target. Nature of the assay: direct ELISA, recombinant human SOD1 coated at 0.1 µg/ml.
The target is the same in assay [6]. Description: direct ELISA, recombinant human SOD1 coated at 3.3 µg/ml.
Description: Binding was determined using a donkey anti-human IgGγ antibody (Jackson immunoResearch, Newmarket, UK) conjugated with HRP, followed by measurement of HRP activity in a standard colorimetric assay.
The EC₅₀ values were estimated by a non-linear regression using GraphPad Prism (San Diego, USA) software.
Assay [7] concerns the target T3, in vitro misfolded/aggregated human SOD1 (metal-catalyzed oxidation) (human, UniProt P00441 2-154, oxidized by metal-catalyzed oxidation (4 mM ascorbic acid, 0.2 mM CuCl2, 48 hours at 37 C); residues not stated).
T3 construct: also called Oxidized SOD1; in vitro aggregated human SOD1 dimers
Nature of the assay: direct ELISA, oxidized human SOD1 coated at 20 µg/ml.

The target of assay [8] is T4, in vitro denatured human SOD1 (human, UniProt P00441 2-154).
T4 construct: also called Denatured SOD1; unfolded SOD1
Nature of the assay: direct ELISA, denatured human SOD1 coated at 20 µg/ml.
Description: as §1, §2

The target of assay [9] is T5, wild type SOD1 from human erythrocytes (physiological dimers) (human, UniProt P00441 2-154).
T5 construct: Purified from human erythrocytes (Sigma-Aldrich); homodimer; control incubated in Tris acetate buffer without oxidants; also called Native SOD1; native human SOD1 dimers
Nature of the assay: direct ELISA, native human SOD1 dimers coated at 20 µg/ml.
Description: as §1, §2

The target in assay [10] is T3, in vitro misfolded/aggregated human …. Nature of the assay: direct ELISA, in vitro aggregated human SOD1 coated at 34 µg/ml.
Description: (§4) Non-specific binding sites were blocked for 1 hr at RT with PBS/0.1% Tween®-20 containing 2% BSA (Sigma-Aldrich, Buchs, Switzerland). […] Binding was determined using either a goat anti-mouse IgG antibody (Jackson immunoResearch, Newmarket, UK) or a donkey anti-human IgGγ antibody (Jackson immunoResearch, Newmarket, UK) conjugated with HRP, followed by measurement of HRP activity in a standard colorimetric assay. EC₅₀ values were estimated by a non-linear regression using GraphPad Prism software (San Diego, USA).
Assay [11] addresses T5, wild type SOD1 from human erythrocytes …. Description: direct ELISA, physiological human SOD1 dimers coated at 34 µg/ml.
Description: as §4
The target of assay [12] is T2, recombinant human SOD1 (biomol, Hamburg). Nature of the assay: direct ELISA, recombinant human SOD1 coated at 1 µg/ml. The source holds these as a separate data set.
Description: as §3
Assay [13] shares this target. Nature of the assay: direct ELISA, recombinant human SOD1 coated at 10 µg/ml. The source holds these as a separate data set.
Description: as §3
The target is the same in assay [14]. Nature of the assay: direct ELISA, recombinant human SOD1 coated at 30 µg/ml.
Description: as §3
The target is the same in assay [15]. Description: direct ELISA, recombinant human SOD1 coated at 0.1 µg/ml. The source holds these as a separate data set.
Description: as §3

T2 sequence (P00441 2-154 limits assumed): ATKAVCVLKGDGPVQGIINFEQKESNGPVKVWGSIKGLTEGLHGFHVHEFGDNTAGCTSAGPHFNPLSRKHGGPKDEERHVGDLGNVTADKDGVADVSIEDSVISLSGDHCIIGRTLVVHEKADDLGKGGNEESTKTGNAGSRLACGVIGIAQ
T3 sequence (P00441 2-154 limits assumed): as above
T5 sequence (P00441 2-154 limits assumed): as above
T1 sequence (P02769 25-607 limits assumed): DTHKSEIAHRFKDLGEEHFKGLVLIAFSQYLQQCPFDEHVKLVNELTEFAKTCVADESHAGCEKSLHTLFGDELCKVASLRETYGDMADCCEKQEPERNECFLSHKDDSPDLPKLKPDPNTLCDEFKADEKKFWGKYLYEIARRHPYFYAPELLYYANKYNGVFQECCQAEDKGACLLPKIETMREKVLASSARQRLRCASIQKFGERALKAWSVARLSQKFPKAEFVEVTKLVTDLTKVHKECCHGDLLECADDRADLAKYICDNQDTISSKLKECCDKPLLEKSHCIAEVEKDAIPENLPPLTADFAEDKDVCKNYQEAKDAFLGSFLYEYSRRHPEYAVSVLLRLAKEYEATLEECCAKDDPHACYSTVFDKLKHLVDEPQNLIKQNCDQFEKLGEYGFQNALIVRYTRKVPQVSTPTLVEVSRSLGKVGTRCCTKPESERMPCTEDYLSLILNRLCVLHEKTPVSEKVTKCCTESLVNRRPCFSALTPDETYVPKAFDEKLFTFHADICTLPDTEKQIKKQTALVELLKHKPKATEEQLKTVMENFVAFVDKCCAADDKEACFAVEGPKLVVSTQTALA
T4 sequence (P00441 2-154 limits assumed): as the sequence (P00441 2-154 limits assumed) above

B1: NI-204.10A8 (antibody, human IgG1, V domains shown)
VH: EVQLVESGAEVKEPGSSVRVSCKTSGGSFNRHVITWVRQAPGQGLEWMGEIIPFFGTPKYAPKFQGRVTIIADASTSTFFLDVKSLTSEDTALYFCWIVVVSVVQRREDFWGQGILVTVSS
VL: EIVLTQSPSSLSASVGDTVTITCRSSQNISNYLSWFQHKPGKAPRILVYAASTLQTGVPSRFSGRGSGTIFTLSITSLQSEDYATYYCQQNDKIPRTFGQGTKVEIK
As to B1, the binding result in assay [1] is reported as “no binding”. For the same molecule, the EC50 is 1 nM in assay [2]; 19 nM in assay [3]; 2 nM in [4]; 96 nM in assay [5]; 2.7 nM in assay [6]; greater than 100 nM in assay [7]. Further, the EC50 in [8] was greater than 100 nM; in assay [9], greater than 100 nM; in assay [10], 29.5 nM; in assay [11], 19.1 nM; in assay [12], 18.7 nM; in assay [13] it was 2.1 nM. Besides, the values for the EC50 in [14] and in assay [15] were 2.2 nM and 95.9 nM, respectively.
